Biological target: complement component C3b, site-specifically biotinylated at Cys-1010 (human) (UniProt P01024)
Assay: SPR

| Substance | Ka-1 (two-state model, first step, association) | Kd | Kd-1 (two-state model, first step, dissociation) | Kd-2 (two-state model, second step, reverse) | Ka-2 (two-state model, second step, forward) |
| --- | --- | --- | --- | --- | --- |
| recombinant FB with D279G mutation (from UniProt P00751 26-764) (natural protein) | 304000 M⁻¹ s⁻¹ |  | 0.0376 s⁻¹ | 0.00941 s⁻¹ |  |
| recombinant FB with D279G, K350N, and S699A (from UniProt P00751 26-764) (natural protein) | 256000 M⁻¹ s⁻¹ | 104 nM | 0.0469 s⁻¹ | 0.00836 s⁻¹ |  |
| recombinant FB with F286L mutation (from UniProt P00751 26-764) (natural protein) | 551000 M⁻¹ s⁻¹ |  | 0.0229 s⁻¹ | 0.0083 s⁻¹ | 0.0289 s⁻¹ |
| recombinant FB with K323E mutation (from UniProt P00751 26-764) (natural protein) | 280000 M⁻¹ s⁻¹ | 159 nM | 0.0807 s⁻¹ | 0.00723 s⁻¹ |  |
| recombinant wild-type FB (from UniProt P00751 26-764) (natural protein) | 325000 M⁻¹ s⁻¹ |  | 0.0796 s⁻¹ | 0.0138 s⁻¹ |  |

The remaining lines, values ahead:

| Ka-1 (two-state model, first step, association) | Kd | Kd-1 (two-state model, first step, dissociation) | Kd-2 (two-state model, second step, reverse) | Ka-2 (two-state model, second step, forward) | Substance |
| --- | --- | --- | --- | --- | --- |
| 168000 M⁻¹ s⁻¹ | 109 nM | 0.0702 s⁻¹ | 0.00249 s⁻¹ |  | Native FB purified from human serum (natural protein) |
| 225000 M⁻¹ s⁻¹ |  | 0.0526 s⁻¹ | 0.0045 s⁻¹ |  | recombinant FB with D279G and K350N (from UniProt P00751 26-764) (natural protein) |
| 131000 M⁻¹ s⁻¹ | 322 nM | 0.0995 s⁻¹ | 0.00419 s⁻¹ |  | recombinant FB with K350N mutation (from UniProt P00751 26-764) (natural protein) |

From publication PMC11573645
